The record followed here is patent US20230012273A1 (Boehringer Ingelheim, published 2023).

Positions count from the first letter of the chain named.

In experiment [1] the target is T1, full-length human SIRPβL H→D on Expi-CHO cells (human, UniProt Q5TFQ8 30-398).
T1 construct: the entry already carries the change (PDHV to PDDV); also called βL WT H→D
Put plainly: flow cytometry, Expi-CHO cells. As to the method:
(§1) Expi-CHO parental cells are transduced with lentiviruses containing either full-length wild-type human SIRPβL (Q5TFQ8) or full-length human SIRPβL with a single amino acid point mutation (Table 62) and sorted to achieve matching expression levels. These cells are blocked with donkey IgG and incubated on ice with increasing concentrations of antibodies for 60 minutes, washed and stained with AF647-conjugated donkey F(ab′)₂ anti-human IgG antibodies. Stained cells are washed, fixed, and analyzed by flow cytometry. Median fluorescent intensity is determined and used as a measure of antibody binding.
A single amino acid substitution (H→D) introduced within the loop region maintained, strengthened, or facilitated antibody binding to these cells (FIG. 34B, Table 63).
(In general: A flow cytometer gives signals particle by particle.)

Experiment [2] concerns the target T2, full-length human SIRPαV2 (CAA71403.1) on cells (human, UniProt P78324 31-504).
T2 construct: one molecule for CHO-K1 and Expi-CHO transfectants (CAA71403.1) and for endogenous V2 on THP-1 cells and on CD14+ monocytes of V2/V2 donors; also called CHO-hSIRPαV2; αV2 WT
As to the kind of experiment: flow cytometry, CD14+ monocytes V2V2. An outline of the steps: (§2)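 PBMCs from donors homozygous for SIRPα V1 or V2 were blocked with donkey IgG and incubated on ice for 60 minutes with increasing antibody concentrations. Bound antibody detected with AF647 donkey F(ab′)₂ anti-human IgG. Median fluorescence intensity of CD14+ cells served as the binding measure.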

Experiment [3] has as its target T3, full-length human SIRPαV1 (NP_542970.1) on cells (human, UniProt P78324 31-504).
T3 construct: one molecule for CHO-K1 and Expi-CHO transfectants (NP_542970.1) and for endogenous V1 on U-937 cells and on CD14+ monocytes of V1/V1 donors; also called CHO-hSIRPαV1; αV1 WT
Put plainly: flow cytometry, Expi-CHO cells. As to the method:
as §1, with “SIRPαV1 allele (NP_542970.1)” for “SIRPβL (Q5TFQ8)”, “SIRPαV1” for “SIRPβL”, “with” for “with a single”, “mutations” for “mutation”, “56)” for “62)”

Experiment [4] has as its target T4, full-length human SIRPαV1 N→E on Expi-CHO cells (human, UniProt P78324 31-504).
T4 construct: the entry already carries the change (TKRN to TKRE)
Put plainly: flow cytometry, Expi-CHO cells. As to the method: as §1, with “SIRPαV1 allele (NP_542970.1)” for “SIRPβL (Q5TFQ8)”, “SIRPαV1” for “SIRPβL”, “with” for “with a single”, “mutations” for “mutation”, “56)” for “62)”

In experiment [5] the target is T5, full-length human SIRPαV1 D→E on Expi-CHO cells (human, UniProt P78324 31-504).
T5 construct: the entry already carries the change (PDDV to PEDV)
T5 sequence (P78324 31-504 D130E): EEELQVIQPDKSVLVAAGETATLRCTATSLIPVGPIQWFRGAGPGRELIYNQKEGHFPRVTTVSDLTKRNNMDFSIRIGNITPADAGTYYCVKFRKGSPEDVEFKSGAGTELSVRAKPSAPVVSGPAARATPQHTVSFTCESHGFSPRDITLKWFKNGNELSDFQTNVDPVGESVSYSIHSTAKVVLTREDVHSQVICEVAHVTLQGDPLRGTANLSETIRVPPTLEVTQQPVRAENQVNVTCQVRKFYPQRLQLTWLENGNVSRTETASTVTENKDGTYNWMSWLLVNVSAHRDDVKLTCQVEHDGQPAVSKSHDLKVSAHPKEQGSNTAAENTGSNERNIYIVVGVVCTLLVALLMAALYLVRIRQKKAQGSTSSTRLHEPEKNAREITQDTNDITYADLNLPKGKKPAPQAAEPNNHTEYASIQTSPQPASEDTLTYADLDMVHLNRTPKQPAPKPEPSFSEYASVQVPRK
Put plainly: flow cytometry, Expi-CHO cells. As to the method: as §1, with “SIRPαV1 allele (NP_542970.1)” for “SIRPβL (Q5TFQ8)”, “SIRPαV1” for “SIRPβL”, “with” for “with a single”, “mutations” for “mutation”, “56)” for “62)”

The target in experiment [6] is T2, full-length human SIRPαV2 (CAA71403.1) …. As to the kind of experiment: flow cytometry, Expi-CHO cells. As to the method: as §1, with “SIRPαV2 allele (CAA71403.1)” for “SIRPβL (Q5TFQ8)”, “SIRPαV2” for “SIRPβL”, “with” for “with a single”, “mutations” for “mutation”, “58)” for “62)”
The target in experiment [7] is T6, full-length human SIRPαV2 D→E on Expi-CHO cells (human, UniProt P78324 31-504).
T6 construct: the entry already carries the change (SPDT to SPET)
T6 sequence (P78324 other isoform, or with tags, fused parts or gaps): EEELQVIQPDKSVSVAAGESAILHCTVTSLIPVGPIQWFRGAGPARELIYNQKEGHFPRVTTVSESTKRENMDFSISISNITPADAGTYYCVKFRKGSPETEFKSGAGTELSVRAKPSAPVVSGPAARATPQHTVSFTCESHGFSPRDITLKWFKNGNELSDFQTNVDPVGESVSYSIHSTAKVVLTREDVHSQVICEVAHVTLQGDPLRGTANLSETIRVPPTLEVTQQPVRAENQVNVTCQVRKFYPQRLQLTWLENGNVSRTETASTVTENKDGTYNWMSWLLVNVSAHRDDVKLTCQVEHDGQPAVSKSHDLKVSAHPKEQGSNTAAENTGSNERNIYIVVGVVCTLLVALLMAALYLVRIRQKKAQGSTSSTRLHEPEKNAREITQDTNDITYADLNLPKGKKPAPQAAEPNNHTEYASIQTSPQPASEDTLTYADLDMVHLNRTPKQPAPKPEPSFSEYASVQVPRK
Put plainly: flow cytometry, Expi-CHO cells. As to the method:
as §1, with “SIRPαV2 allele (CAA71403.1)” for “SIRPβL (Q5TFQ8)”, “SIRPαV2” for “SIRPβL”, “with” for “with a single”, “mutations” for “mutation”, “58)” for “62)”

The target of experiment [8] is T7, full-length human SIRPαV2 E→N on Expi-CHO cells (human, UniProt P78324 31-504).
T7 construct: the entry already carries the change (TKRE to TKRN)
T7 sequence (P78324 other isoform, or with tags, fused parts or gaps): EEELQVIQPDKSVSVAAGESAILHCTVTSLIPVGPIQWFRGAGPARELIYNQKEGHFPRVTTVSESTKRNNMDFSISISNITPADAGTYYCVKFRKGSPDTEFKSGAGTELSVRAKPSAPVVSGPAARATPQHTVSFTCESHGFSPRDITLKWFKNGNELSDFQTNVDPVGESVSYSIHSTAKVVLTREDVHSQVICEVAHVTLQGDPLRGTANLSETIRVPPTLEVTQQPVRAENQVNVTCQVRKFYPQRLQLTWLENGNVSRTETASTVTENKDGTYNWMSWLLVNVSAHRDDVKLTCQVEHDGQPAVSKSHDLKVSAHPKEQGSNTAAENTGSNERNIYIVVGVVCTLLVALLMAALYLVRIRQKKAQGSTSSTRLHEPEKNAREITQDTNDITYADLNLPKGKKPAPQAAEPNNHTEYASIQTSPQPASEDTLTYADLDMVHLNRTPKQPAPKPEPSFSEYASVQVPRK
As to the kind of experiment: flow cytometry, Expi-CHO cells. As to the method:
as §1, with “SIRPαV2 allele (CAA71403.1)” for “SIRPβL (Q5TFQ8)”, “SIRPαV2” for “SIRPβL”, “with” for “with a single”, “mutations” for “mutation”, “58)” for “62)”

Experiment [9] addresses T8, full-length human SIRPβ1 D→H on Expi-CHO cells (human, UniProt O00241 30-398).
T8 construct: the entry already carries the change (PDDV to PDHV)
Put plainly: flow cytometry, Expi-CHO cells expressing full-length human SIRPβ1 D→H. As to the method:
These cells are blocked with donkey IgG and incubated on ice with increasing concentrations of antibodies for 60 minutes, washed and stained with AF647-conjugated donkey F(ab′)₂ anti-human IgG antibodies. Stained cells are washed, fixed, and analyzed by flow cytometry. Median fluorescent intensity is determined and used as a measure of antibody binding.

Experiment [10] addresses T3, full-length human SIRPαV1 (NP_542970.1) …. Put plainly: flow cytometry, competition with CD47 tetramer, monocytes V1V1. As to the method: (§3) Cells are washed, fixed, and analyzed by flow cytometry. Median fluorescent intensity of CD14+gated population is determined and used as a measure of CD47 binding.
The target of experiment [11] is ED-tagged human SIRPα V1 receptor on Jurkat signaling reporter cells (human, UniProt P78324 31-504). Put plainly: cell-based or functional assay.
Experiment [12] deals with ED-tagged human SIRPα V2 receptor on Jurkat signaling reporter cells (human, UniProt P78324 31-504). Put plainly: cell-based or functional assay.
For experiment [13], the target named is T3, full-length human SIRPαV1 (NP_542970.1) …. As to the kind of experiment: flow cytometry, CD14+ monocytes V1V1. An outline of the steps:
as §2

Experiment [14] concerns the target T2, full-length human SIRPαV2 (CAA71403.1) …. Put plainly: flow cytometry, competition with CD47 tetramer, monocytes V2V2. As to the method: as §3
Experiment [15] has as its target T3, full-length human SIRPαV1 (NP_542970.1) …. As to the kind of experiment: flow cytometry, U-937 cells (endogenous V1). As to the method:
Antibody binding to human monocytic cell lines homozygous for the V1-allele (U-937) or the V2-allele (THP-1) of SIRPα is assessed. U-937 or THP-1 cells are blocked with donkey IgG and incubated on ice with increasing concentrations of antibodies for 60 minutes, washed and stained with AF647-conjugated donkey F(ab′)₂ anti-human IgG secondary reagent. Cells are washed, fixed, and analyzed by flow cytometry. Median fluorescent intensity is determined and used as a measure of antibody binding.

T3 sequence (P78324 31-504): as the sequence (P78324 31-504 D130E) above, with E100D counted along it
T2 sequence (P78324 other isoform, or with tags, fused parts or gaps): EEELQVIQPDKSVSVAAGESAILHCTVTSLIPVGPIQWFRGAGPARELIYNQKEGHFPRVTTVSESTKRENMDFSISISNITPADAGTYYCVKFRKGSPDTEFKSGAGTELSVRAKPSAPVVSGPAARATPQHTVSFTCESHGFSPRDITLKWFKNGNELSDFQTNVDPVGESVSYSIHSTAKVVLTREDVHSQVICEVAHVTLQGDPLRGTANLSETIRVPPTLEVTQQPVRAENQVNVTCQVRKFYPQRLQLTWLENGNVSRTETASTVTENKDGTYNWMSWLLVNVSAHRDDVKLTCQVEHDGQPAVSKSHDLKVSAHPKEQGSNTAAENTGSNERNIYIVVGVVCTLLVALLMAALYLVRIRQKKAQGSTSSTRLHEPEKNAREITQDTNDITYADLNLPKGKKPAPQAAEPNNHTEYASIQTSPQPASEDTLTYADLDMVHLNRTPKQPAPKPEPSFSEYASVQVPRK
T8 sequence (O00241 30-398 D130H): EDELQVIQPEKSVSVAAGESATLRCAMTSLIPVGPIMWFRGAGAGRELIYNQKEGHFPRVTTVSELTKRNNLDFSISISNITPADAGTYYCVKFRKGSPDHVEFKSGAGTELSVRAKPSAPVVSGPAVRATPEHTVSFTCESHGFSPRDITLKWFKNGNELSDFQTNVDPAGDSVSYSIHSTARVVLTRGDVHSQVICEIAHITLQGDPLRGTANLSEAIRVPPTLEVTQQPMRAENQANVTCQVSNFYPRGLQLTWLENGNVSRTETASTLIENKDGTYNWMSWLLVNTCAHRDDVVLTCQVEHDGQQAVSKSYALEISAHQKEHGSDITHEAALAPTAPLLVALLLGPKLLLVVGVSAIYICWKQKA
T1 sequence (Q5TFQ8 30-398 H130D): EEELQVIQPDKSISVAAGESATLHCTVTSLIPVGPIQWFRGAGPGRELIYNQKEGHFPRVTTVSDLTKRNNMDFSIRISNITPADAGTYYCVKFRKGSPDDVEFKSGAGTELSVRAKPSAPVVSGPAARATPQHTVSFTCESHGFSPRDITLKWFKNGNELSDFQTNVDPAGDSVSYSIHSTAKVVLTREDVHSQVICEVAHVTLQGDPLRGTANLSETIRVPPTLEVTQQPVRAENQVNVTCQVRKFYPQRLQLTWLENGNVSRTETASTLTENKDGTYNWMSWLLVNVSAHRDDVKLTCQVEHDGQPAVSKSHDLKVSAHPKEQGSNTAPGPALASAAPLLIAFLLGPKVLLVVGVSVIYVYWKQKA
T4 sequence (P78324 31-504 N100E): as the sequence (P78324 31-504 D130E) above, with N70E, E100D counted along it

B1: Antibody C (antibody, human IgG1, kappa, L234A L235A, V domains shown)
VH: EVQLVESGGGLVQPGGSLRLSCAASGFTFSSYDMHWVRQATGKGLEWVSVIGIAGDTYYPGSVKGRFTISRENAKNSLYLQMNSLRVGDTAVYYCARGGSWDDAFDIWGQGTMVTVSS
VL: DIQMTQSPSSLSASIGDKVTITCRASQDINNYLAWFQQKPGKAPKSLIYTASSLQSGVPSKFSGSGSGTDFTLTISSLQPEDFATYYCQQYVSYPYTFGQGTKLEIKR
As usually defined, the EC50 is the concentration needed to bring the measured effect to its halfway point. A low value points to an effect from little substance. As usually defined, the IC50 is the concentration at which inhibition is half-maximal. The low end stands for greater potency, the high end for weaker potency. Turning to B1, the EC50 in experiment [1] came to 0.3 nM; in experiment [2], 0.3 nM; in [3], 0.3 nM; in experiment [4], 0.3 nM; in [5], 0.2 nM; in experiment [6], 0.2 nM. Moreover, the 50% effective concentration (EC50) is 0.2 nM in [7], 0.2 nM in experiment [8], 0.6 nM in experiment [13] and 0.6 nM in experiment [15]. Besides, the binding result in [9] is on record as “no binding (tested: about 67 nM)”. Further, the IC50 in experiment [10] was found to be 0.04 nM; in experiment [14] it was 0.05 nM. Further, the “Blockade of Cellular CD47-Mediated SIRPα Signaling; IC50” value in [11] was found to be 0.04 nM; in [12] it was 0.03 nM.

B2: Antibody D (antibody, human IgG1, kappa, L234A L235A, V domains shown)
VH: B1 VH with Y32F, A40P, V50T, Y59F, V87A, S100N, F105L
VL: B1 VL with I15V, K18R, V92N, S93T
In the case of B2, the EC50 is 0.2 nM in experiment [1]; 0.2 nM in [2]; 0.3 nM in experiment [3]; 0.3 nM in experiment [4]; 0.2 nM in [5]; 0.2 nM in experiment [6]. For the same molecule, the concentration for a half-maximal effect (EC50) worked out at 0.6 nM in [7], 0.2 nM in [8], 0.3 nM in experiment [13] and 0.5 nM in experiment [15]. In experiment [9], the binding result was “no binding (tested: about 67 nM)”. Also, the IC50 in experiment [10] was 0.03 nM; in [14], 0.05 nM. Moreover, the “Blockade of Cellular CD47-Mediated SIRPα Signaling; IC50” value in experiment [11] and in experiment [12] was 0.04 nM throughout.
